According to publication PMC11987610, “Pseudomonas aeruginosa PfpI is a methylglyoxalase” (The Journal of Biological Chemistry, 2025):

Columns and labels:
YhbO = molecular target: T1, YhbO (Escherichia coli, UniProt P45470); experiment: 1D 1H NMR of end products; type: biochemical; details: 1 mM MGO, 20 μg enzyme, 50 mM PBS with 5% DMSO-d6, overnight, 4 °C
T1 construct: full-length ORF with N-terminal His6 tag (pET-19m), E. coli Rosetta (DE3); tagged mass 20,858 Da
T1 sequence (P45470 1-172): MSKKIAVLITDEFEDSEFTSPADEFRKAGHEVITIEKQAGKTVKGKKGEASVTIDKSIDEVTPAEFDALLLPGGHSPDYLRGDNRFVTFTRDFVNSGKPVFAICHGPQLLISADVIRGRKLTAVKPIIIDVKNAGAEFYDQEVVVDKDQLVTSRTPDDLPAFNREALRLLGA

[1] = molecular target: Pseudomonas aeruginosa PfpI (PA0355), recombinant, N-terminal His6 tag (P. aeruginosa PAO1); experiment: AUC; sedimentation velocity; 25 mM Tris-HCl (pH 8.0), 100 mM NaCl; 0.5, 1.0 and 2.0 mg/ml PfpI; 20 C, 24 h
[2] = substrate: CC(=O)C=O; experiment: colorimetric lactate assay after heat quench, Michaelis-Menten fit; type: biochemical, Pseudomonas aeruginosa; details: PBS, 37 °C, 0.2 μM enzyme, glutathione-independent

CC(=O)C=O [methylglyoxal]
1D 1H NMR of end products (YhbO): both enzymes quantitatively convert MGO to lactate

Pseudomonas aeruginosa PfpI (PA0355), recombinant, N-terminal His6 tag (enzyme)
stoichiometry N [1]: 2

B1: PfpI (Pseudomonas aeruginosa PAO1) (protein)
chain: MTQSLHGKVVAALVTDGFEQVELTGPKKALEDAGATVRILSDKAGEVRGWNHHQPAEAFRVDGTFEDASLDDYDALLLPGGVINSDQIRSLAKAQELAIRAEQASKPVAVICHGAWLLISAGLVQGRTLTSWPSLKDDINNAGGHWVDQEVAVDGKLVSSRKPEDIPAFNRRFIEILAG
notes: full-length ORF (540 bp) with N-terminal His6 tag (pET-19m), E. coli Rosetta (DE3); tagged mass 21,246 Da
Km [2]: 369 ± 139 µM | kcat [2]: 1.72 ± 0.367 s⁻¹
